First the molecules themselves.
B1: Retinoic acid receptor RXR-gamma (Homo sapiens), P48443 (parent)
chain: MYGNYSHFMKFPAGYGGSPGHTGSTSMSPSAALSTGKPMDSHPSYTDTPVSAPRTLSAVGTPLNALGSPYRVITSAMGPPSGALAAPPGINLVAPPSSQLNVVNSVSSSEDIKPLPGLPGIGNMNYPSTSPGSLVKHICAICGDRSSGKHYGVYSCEGCKGFFKRTIRKDLIYTCRDNKDCLIDKRQRNRCQYCRYQKCLVMGMKREAVQEERQRSRERAESEAECATSGHEDMPVERILEAELAVEPKTESYGDMNMENSTNDPVTNICHAADKQLFTLVEWAKRIPHFSDLTLEDQVILLRAGWNELLIASFSHRSVSVQDGILLATGLHVHRSSAHSAGVGSIFDRVLTELVSKMKDMQMDKSELGCLRAIVLFNPDAKGLSNPSEVETLREKVYATLEAYTKQKYPEQPGRFAKLLLRLPALRSIGLKCLEHLFFFKLIGDTPIDTFLMEMLETPLQIT
partner: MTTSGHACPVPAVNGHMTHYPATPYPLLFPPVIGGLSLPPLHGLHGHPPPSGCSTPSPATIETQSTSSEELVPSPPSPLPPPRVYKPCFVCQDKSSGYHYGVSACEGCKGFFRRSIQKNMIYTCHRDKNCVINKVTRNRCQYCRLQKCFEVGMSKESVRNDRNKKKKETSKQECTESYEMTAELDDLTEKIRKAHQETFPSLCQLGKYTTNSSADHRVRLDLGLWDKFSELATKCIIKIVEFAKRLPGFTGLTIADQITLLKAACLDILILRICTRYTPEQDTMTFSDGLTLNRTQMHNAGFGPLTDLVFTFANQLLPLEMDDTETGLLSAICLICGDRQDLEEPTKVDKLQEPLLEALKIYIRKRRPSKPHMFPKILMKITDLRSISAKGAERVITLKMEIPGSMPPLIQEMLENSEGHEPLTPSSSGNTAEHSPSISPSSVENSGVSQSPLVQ
B2: G-patch domain and KOW motifs-containing protein (Homo sapiens), Q92917 (parent)
chain: MADSKEGVLPLTAASTAPISFGFTRTSARRRLADSGDGAGPSPEEKDFLKTVEGRELQSVKPQEAPKELVIPLIQNGHRRQPPARPPGPSTDTGALADGVVSQAVKELIAESKKSLEERENAGVDPTLAIPMIQKGCTPSGEGADSEPRAETVPEEANYEAVPVEAYGLAMLRGMGWKPGEGIGRTFNQVVKPRVNSLRPKGLGLGANLTEAQALTPTGPSRMPRPDEEQEKDKEDQPQGLVPGGAVVVLSGPHRGLYGKVEGLDPDNVRAMVRLAVGSRVVTVSEYYLRPVSQQEFDKNTLDLRQQNGTASSRKTLWNQELYIQQDNSERKRKHLPDRQDGPAAKSEKAAPRSQHWLHRDLRVRFVDNMYKGGQYYNTKMIIEDVLSPDTCVCRTDEGRVLEGLREDMLETLVPKAEGDRVMVVLGPQTGRVGHLLSRDRARSRALVQLPRENQVVELHYDAICQYMGPSDTDDD
partner: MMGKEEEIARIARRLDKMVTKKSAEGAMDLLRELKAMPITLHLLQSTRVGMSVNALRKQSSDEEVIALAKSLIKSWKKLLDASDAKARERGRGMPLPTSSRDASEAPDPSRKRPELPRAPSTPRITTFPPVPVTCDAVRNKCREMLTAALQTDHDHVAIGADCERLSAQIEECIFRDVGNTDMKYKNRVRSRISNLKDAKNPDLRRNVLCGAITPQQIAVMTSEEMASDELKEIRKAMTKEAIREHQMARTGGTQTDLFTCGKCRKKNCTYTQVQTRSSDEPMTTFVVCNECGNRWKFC
B3: UPF0462 protein C4orf33 (Homo sapiens), Q8N1A6 (parent)
chain: MDFKIEHTWDGFPVKHEPVFIRLNPGDRGVMMDISAPFFRDPPAPLGEPGKPFNELWDYEVVEAFFLNDITEQYLEVELCPHGQHLVLLLSGRRNVWKQELPLSFRMSRGETKWEGKAYLPWSYFPPNVTKFNSFAIHGSKDKRSYEALYPVPQHELQQGQKPDFHCLEYFKSFNFNTLLGEEWKQPESDLWLIEKCDI
B4: Keratin, type I cuticular Ha8 (Homo sapiens), O76015 (parent)
chain: MTSSYSSSSCPLGCTMAPGARNVSVSPIDIGCQPGAEANIAPMCLLANVAHANRVRVGSTPLGRPSLCLPPTCHTACPLPGTCHIPGNIGICGAYGENTLNGHEKETMQFLNDRLANYLEKVRQLEQENAELEATLLERSKCHESTVCPDYQSYFHTIEELQQKILCSKAENARLIVQIDNAKLAADDFRIKLESERSLRQLVEADKCGTQKLLDDATLAKADLEAQQESLKEEQLSLKSNHEQEVKILRSQLGEKLRIELDIEPTIDLNRVLGEMRAQYEAMLETNRQDVEQWFQAQSEGISLQDMSCSEELQCCQSEILELRCTVNALEVERQAQHTLKDCLQNSLCEAEDRFGTELAQMQSLISNVEEQLSEIRADLERQNQEYQVLLDVKTRLENEIATYRNLLESEDCKLPCNPCSTSPSCVTAPCAPRPSCGPCTTCGPTCGASTTGSRF
partner: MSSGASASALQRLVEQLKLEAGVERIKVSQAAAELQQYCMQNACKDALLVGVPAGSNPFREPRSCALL
B5: Isoform 1 of Myotubularin-related protein 9 (Homo sapiens), Q96QG7-1 (parent)
chain: MEFAELIKTPRVDNVVLHRPFYPAVEGTLCLTGHHLILSSRQDNTEELWLLHSNIDAIDKRFVGSLGTIIIKCKDFRIIQLDIPGMEECLNIASSIEALSTLDSITLMYPFFYRPMFEVIEDGWHSFLPEQEFELYSSATSEWRLSYVNKEFAVCPSYPPIVTVPKSIDDEALRKVATFRHGGRFPVLSYYHKKNGMVIMRSGQPLTGTNGRRCKEDEKLINATLRAGKRGYIIDTRSLNVAQQTRAKGGGFEQEAHYPQWRRIHKSIERYHILQESLIKLVEACNDQTHNMDRWLSKLEASNWLTHIKEILTTACLAAQCIDREGASILIHGTEGTDSTLQVTSLAQIILEPRSRTIRGFEALIEREWLQAGHPFQQRCAQSAYCNTKQKWEAPVFLLFLDCVWQILRQFPCSFEFNENFLIMLFEHAYASQFGTFLGNNESERCKLKLQQKTMSLWSWVNQPSELSKFTNPLFEANNLVIWPSVAPQSLPLWEGIFLRWNRSSKYLDEAYEEMVNIIEYNKELQAKVNILRRQLAELETEDGMQESP
partner: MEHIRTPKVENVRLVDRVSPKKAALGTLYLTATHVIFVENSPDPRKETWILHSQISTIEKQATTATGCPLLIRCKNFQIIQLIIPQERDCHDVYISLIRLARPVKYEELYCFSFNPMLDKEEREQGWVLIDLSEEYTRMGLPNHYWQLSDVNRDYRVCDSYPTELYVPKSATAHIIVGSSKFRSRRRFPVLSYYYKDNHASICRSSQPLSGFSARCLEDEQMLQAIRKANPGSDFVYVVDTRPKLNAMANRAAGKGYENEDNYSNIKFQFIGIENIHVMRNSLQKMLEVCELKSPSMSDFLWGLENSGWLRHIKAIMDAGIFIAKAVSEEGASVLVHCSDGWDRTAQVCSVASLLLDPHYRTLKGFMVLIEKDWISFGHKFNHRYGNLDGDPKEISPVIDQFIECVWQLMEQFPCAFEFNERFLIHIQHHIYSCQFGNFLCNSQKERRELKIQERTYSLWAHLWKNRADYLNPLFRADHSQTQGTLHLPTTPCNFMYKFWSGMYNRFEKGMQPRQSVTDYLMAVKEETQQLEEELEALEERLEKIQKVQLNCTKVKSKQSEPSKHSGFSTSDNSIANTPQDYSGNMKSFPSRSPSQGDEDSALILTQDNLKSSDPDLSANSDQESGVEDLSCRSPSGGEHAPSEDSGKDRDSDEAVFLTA

The record followed here is IntAct's records for PubMed 31515488.

In one experiment the parent is B1. The note with it: with rarb_human RARB.
With A86V, the “effect of a mutation on the interaction” value is recorded as “with no effect”.

Variants of B2 are the subject of the next experiment. The note with it: with tcea2_human TCEA2, Q15560.
As for V393A, the “effect of a mutation on the interaction” value is on record as “with no effect”.

Consider A129T, for which the “effect of a mutation on the interaction” value is “with no effect”.

Variants of B3 are the subject of the next experiment. The note with it: with vac14_human VAC14, Q08AM6.
vac14_human VAC14, Q08AM6, sequence (Q08AM6 whole entry): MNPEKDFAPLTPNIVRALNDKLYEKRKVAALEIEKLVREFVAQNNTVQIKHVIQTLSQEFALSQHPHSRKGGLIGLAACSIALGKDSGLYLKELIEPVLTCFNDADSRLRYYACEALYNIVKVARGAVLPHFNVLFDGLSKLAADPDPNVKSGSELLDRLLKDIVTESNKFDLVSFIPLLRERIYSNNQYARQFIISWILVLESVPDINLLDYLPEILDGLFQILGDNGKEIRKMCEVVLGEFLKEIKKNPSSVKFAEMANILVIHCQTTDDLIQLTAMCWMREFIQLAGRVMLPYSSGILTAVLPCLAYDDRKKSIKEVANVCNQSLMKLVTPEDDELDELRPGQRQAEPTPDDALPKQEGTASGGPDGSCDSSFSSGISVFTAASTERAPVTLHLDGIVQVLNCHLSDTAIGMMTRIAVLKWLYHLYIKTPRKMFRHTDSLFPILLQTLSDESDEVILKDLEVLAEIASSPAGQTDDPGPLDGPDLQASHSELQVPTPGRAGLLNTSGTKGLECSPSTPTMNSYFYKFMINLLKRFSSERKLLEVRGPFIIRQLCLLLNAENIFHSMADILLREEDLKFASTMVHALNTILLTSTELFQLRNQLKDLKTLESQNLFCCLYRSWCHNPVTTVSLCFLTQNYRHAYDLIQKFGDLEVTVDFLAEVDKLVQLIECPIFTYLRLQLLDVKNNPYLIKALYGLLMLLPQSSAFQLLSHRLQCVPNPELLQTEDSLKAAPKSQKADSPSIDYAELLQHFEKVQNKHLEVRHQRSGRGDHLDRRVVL
H166R: the “effect of a mutation on the interaction” value is listed as “with no effect”.

The next experiment covers variants of B4. The note with it: with gbg10_human GNG10, P50151.
For the variant A205S, the “effect of a mutation on the interaction” value is “with no effect”.

In another experiment the parent is B5. The note with it: with mtmr7_human MTMR7, Q9Y216.
Regarding F127I, the “effect of a mutation on the interaction” value is “with no effect”.
